Data published in paper PMC10939898.

Key:
[1] = biological target: fluorescently-labeled NCP carrying H2AK13ub and H2AK15ub (NCP^ub) (human) (UniProt P0CG48); test: fluorescence polarisation
[2] = biological target: fluorescently-labeled nucleosome core particle (NCP) (human); test: fluorescence polarisation

| Substance | Kd [1] | Kd [2] |
| --- | --- | --- |
| RNF168 MIU2-LRM (aa 430–481) (from UniProt Q8IYW5 430-481) (domain or fragment) | 1400 nM |  |
| RNF168 RING domain (RNF168^R, aa 1–94) (from UniProt Q8IYW5 1-94) (domain or fragment) |  | 400 nM |
| full-length human RNF168 (RNF168^FL, aa 1–571) (from UniProt Q8IYW5 1-571) (natural protein) | 50 nM | 120 nM |
